The target of assay [1] is Methanococcus aeolicus McrB (untagged) (Methanococcus aeolicus). The assay is described as follows: native MS; intact protein mass spectrometry (12 T FT-ICR, nano-electrospray) of purified NG-tagged MCRaeo, 10 μM in 200 mM ammonium acetate pH 7.6.
Assay [2] has as its target Flag-Strep2-tagged Methanococcus aeolicus McrG (tag at the N-terminus of McrG, NG) (Methanococcus aeolicus). The assay is described as above.
Assay [3] shares this target. Description: affinity purification with mass spectrometry; Flag-Strep2-tagged subunit expressed with its mcr operon (full or truncated) in M. maripaludis at 37 °C; lysate on Strep-Tactin Superflow Plus in 100 mM Tris-HCl pH 7.6, 150 mM NaCl, eluted with 2.5 mM desthiobiotin, then Q-Sepharose anion exchange; SDS-PAGE, bands identified by MALDI-TOF MS, relative abundance by LC-MS/MS.

In assay [4] the target is Flag-Strep2-tagged Methanococcus aeolicus McrA (tag at the C-terminus of McrA, CA) (Methanococcus aeolicus). The description is as above.
The target in assay [5] is Flag-Strep2-tagged Methanococcus aeolicus McrB (tag at the N-terminus of McrB, NB) (Methanococcus aeolicus). The description is as above.
For assay [6], the target named is Methanococcus aeolicus McrA (untagged) (Methanococcus aeolicus). The assay is described as follows: native MS; intact protein mass spectrometry (12 T FT-ICR, nano-electrospray) of purified NG-tagged MCRaeo, 10 μM in 200 mM ammonium acetate pH 7.6.

With “Methanococcus aeolicus McrB (untagged) (natural protein)”, the stoichiometry N (as a rule, the number of molecules, sites or subunits per partner or assembly) in assay [1] came to 2.
In the case of “Flag-Strep2-tagged Methanococcus aeolicus McrG (tag at the N-terminus of McrG, NG) (natural protein)”, in assay [2], the stoichiometry N was 2.
Regarding “untagged host Methanococcus maripaludis McrG (natural protein)”, the percent of the total McrG in the purified complex in assay [3], in assay [4] and in assay [5] was 30% throughout.
“Methanococcus aeolicus McrA (untagged) (natural protein)” yielded a stoichiometry N in assay [6] of 2.

The record behind these values is PMC9584954.
